# Test results: patent US10000771B2, “Nuclear targeting sequences” (Yeda Research and Development Co. Ltd., priority 2007, dated 2018)
# B1: APA-ERK2: GFP-ERK2 with the two Ser residues of the SPS sequence replaced by Ala (protein)
# chain: MAAAAAAGPEMVRGQVFDVGPRYTNLSYIGEGAYGMVCSAYDNLNKVRVAIKKISPFEHQTYCQRTLREIKILLRFRHENIIGINDIIRAPTIEQMKDVYIVQDLMETDLYKLLKTQHLSNDHICYFLYQILRGLKYIHSANVLHRDLKPSNLLLNTTCDLKICDFGLARVADPDHDHTGFLTEYVATRWYRAPEIMLNSKGYTKSIDIWSVGCILAEMLSNRPIFPGKHYLDQLNHILGILGAPAQEDLNCIINLKARNYLLSLPHKNKVPWNRLFPNADSKALDLLDKMLTFNPHKRIEVEQALAHPYLEQYYDPSDEPIAEAPFKFDMELDDLPKEKLKELIFEETARFQPGYRS
# modifications: left off: large carriers
# Assays:
# Act-GST-ERK2 = biological target: T1, Act-GST-ERK2 (Rattus norvegicus, UniProt P63086); assay: In vitro kinase assay with active GST-ERK2; assay type: biochemical; settings: immunoprecipitated protein as substrate, relative to GFP-ERK2
# T1 construct: made in house; host or cells: bacteria co-expressing active MEK1
# Protocol: FIGS. 4A-4I are autoradiographs characterizing SPS phosphorylation using an Ab to the phosphorylated SPS domain. FIG. 4A illustrates an elevation of pSPS detection upon stimulation. COS cells were transfected with WT-GFP-ERK2. Twenty-four hr after transfection, the cells were serum-starved for 16 hr and subsequently treated with the general stimulator VOOH (V, 100 μM Na3VO4 and 200 μM H2O2, 15 min), TPA (T, 250 nM, 15 min), EGF (E, 50 ng/ml for 15 min), or left untreated (NT). The GFP-ERK2 was immunoprecipitated with anti GFP Ab, extensively washed, and the IP was then subjected to Western blotting with anti phospho SPS-ERK (αphoSPS-ERK) and anti general ERK (αgen-ERK) Abs. FIG. 4B is a time course of SPS phosphorylation. […] SPS phosphorylation was detected using the anti pSPS Abs, and this was compared to the amount of genral ERKs detected by αgERK. […] SPS-phosphorylation was detected using αpSPS and αgERK Abs. […] The phosphorylation (^32P-ERK2) of ERK and its mutants was detected by autoradiography. […]
# Some protein kinases downstream of MEKs that may be involved in the SPS phosphorylation are ERKs themselves (autophosphorylation) as their consensus phosphorylation site includes Ser/Thr followed by a Pro (Yoon and Seger, 2006, Growth Factors, 24, 21-44). […] As expected, ^32P incorporation to GFP-ERK2 was detected mainly when this protein was incubated with Act-ERK2. […]
# importin-7 = biological target: T2, importin-7 (Homo sapiens, UniProt O95373); assay: Coimmunoprecipitation with importin-7; assay type: binding; settings: HeLa cells, coimmunoprecipitation with anti GFP Ab, with or without stimulation
# T2 construct: endogenous in cells; host or cells: HeLa
# Protocol: FIGS. 19A-19C are autoradiographs illustrating that phospho-SPS interacts with importin-7 and releases Nup153c binding without involvment of importin-β. […]. Interaction of ERK2 with Importin-7 is enhanced by EGF stimulation and EPE mutation. HeLa cells overexpressing WT-ERK (WT), ERK-APA (APA), ERK-EPE (EPE) or GFP were serum starved and treated with EGF (50 ng/ml, 10 min). The extracts of the treated cells were then subjected to coimmunoprecipitation using A/G beads pre-conjugated with anti GFP Ab and mild washes. The coimmunoprecipitated importin-7 (first panel) and importin-β (third panel), as well as their loading amounts (panels 2 and 4 respectively) were determined by WB using anti importin-7 (αImp7) and importin-β (αImpβ) Abs. The equal amount of immunoprecipitated ERKs was determined with anti GFP (αGFP; IP) Ab. FIG. 19B. Interaction of 2GFP-SPS and its mutants with importin-7. HeLa cells overexpressing 2GFP, 2GFP-SPS, 2GFP-APA and 2GFP-EPE constructs were subjected to coimmunoprecipitation as described in FIG. 19A (without EGF stimulation). FIG. 19C. Interaction of NUP153 with WTERK2 and its APA and EPE mutants. NUP153c is elevated in APA-ERK2, but reduced in EPE-ERK2. Immunoprecipitated and stringently washed WT-ERK2 (WT), APA-ERK2 (APA) or ERK2 from […] cells pre-treated with or without TPA (250 nM, 15 min) were incubated with 0.5 μg recombinant His-Nup153c. […]
# T2 sequence (O95373 whole entry): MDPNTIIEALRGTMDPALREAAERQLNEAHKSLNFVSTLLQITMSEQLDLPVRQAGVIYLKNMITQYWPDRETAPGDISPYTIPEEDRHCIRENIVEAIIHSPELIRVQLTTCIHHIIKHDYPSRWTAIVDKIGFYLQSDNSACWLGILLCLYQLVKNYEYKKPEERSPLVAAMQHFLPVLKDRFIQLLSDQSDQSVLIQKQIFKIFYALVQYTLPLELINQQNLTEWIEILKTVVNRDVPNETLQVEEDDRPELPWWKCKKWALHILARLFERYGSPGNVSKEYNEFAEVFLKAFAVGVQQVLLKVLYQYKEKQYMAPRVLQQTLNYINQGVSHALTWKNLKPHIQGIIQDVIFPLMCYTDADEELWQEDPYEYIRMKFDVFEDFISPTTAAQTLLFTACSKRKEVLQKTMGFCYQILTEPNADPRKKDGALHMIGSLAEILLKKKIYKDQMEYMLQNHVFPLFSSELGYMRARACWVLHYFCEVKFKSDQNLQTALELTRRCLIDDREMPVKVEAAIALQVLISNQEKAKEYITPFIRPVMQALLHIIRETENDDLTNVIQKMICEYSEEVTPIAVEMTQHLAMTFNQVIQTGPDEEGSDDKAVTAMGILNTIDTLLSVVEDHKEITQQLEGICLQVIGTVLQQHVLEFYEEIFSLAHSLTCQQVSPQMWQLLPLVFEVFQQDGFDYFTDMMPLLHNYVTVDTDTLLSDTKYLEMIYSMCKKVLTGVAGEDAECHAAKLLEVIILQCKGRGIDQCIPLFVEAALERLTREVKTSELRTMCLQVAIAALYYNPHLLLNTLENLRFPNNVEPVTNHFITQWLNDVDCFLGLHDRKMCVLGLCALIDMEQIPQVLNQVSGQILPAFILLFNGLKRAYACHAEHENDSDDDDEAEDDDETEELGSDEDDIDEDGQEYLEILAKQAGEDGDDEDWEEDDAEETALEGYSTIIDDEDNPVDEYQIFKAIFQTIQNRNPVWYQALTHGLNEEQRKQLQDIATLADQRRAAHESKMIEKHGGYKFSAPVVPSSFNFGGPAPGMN
# T1 sequence (P63086 whole entry): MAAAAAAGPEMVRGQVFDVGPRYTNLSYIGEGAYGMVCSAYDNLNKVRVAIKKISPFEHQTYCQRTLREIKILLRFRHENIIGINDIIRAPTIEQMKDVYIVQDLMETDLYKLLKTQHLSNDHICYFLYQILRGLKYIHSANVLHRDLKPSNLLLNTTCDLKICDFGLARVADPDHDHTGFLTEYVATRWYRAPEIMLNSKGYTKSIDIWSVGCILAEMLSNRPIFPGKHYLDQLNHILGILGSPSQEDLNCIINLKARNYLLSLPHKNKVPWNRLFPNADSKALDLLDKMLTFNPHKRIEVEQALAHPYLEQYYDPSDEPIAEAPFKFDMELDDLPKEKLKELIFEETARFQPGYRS
molecule,measurement,setting,value
B1,reduction of phosphorylation (32P incorporation) by Act-ERK2,Act-GST-ERK2,~80%
same,interaction of ERK2 constructs with importin-7,importin-7,reduced the interaction
